Assay results as given in the DeepSol protein solubility set.

Experiment: soluble on expression in E. coli; label from the status in PepcDB or PDB records

| Sequence | soluble on expression in E. coli |
| --- | --- |
| MSLEWHFSLKEPHVLLFLPFEKYALPYPDPSQSWLSFGLTEIPVPEWTKNLEIITPWRPDFLKFANAQFRCSPEINQTCTHDGALLQLSKYRGFNQNCFLDLLERVKPGGWIIIGGNKTSGADSMMKWVKKIVPITNKFSKNHGLVFWIQVPQQIEKQNTAQLRSPPLTFENKFQTTSGMFSHGRIDPGSAVLASHMCKTISGKTADFGAGWGFLSHAALERSEKLTALDLYEADYNALKAAKQHLKHITTSLPIHFYWHDLVHEPITNLYDTIISNPPFHTQQTTDVSLGQHFIINAAKYLKPGGNLLLVANRHLPYETLLKRLFRTVLIYEKAHGFKVIEAYREGHHHHHH | soluble |
| DVQLLESGPGLVAPSQSLSITCTVSGFSLTNYGVDWVRQPPGKGLEWVGVIWSGGSTNYNSALMSRLSISKDNSKSQVFLKMNSLQTDDTAVYYCAKHWGGYYIPYGMDHWGQGTTVTVSSASTKGPSVFPLAPSSKSTSGGTAALGCLVKDYFPEPVTVSWNSGALTSGVHTFPAVLQSSGLYSLSSVVTVPSSSLGTQTYICNVNHKPSNTKVDKKVEPKSCDKTHT | soluble |
| MLILSTEKEPNFEYEEITRSFLSNMLAFTRGHFTGDISHFSPIVLAEMEKDPNWLEEAAGGMQGVIVQSLLEDENFSSVEQLKGELARLIRLYFALAKDNLTENQESLYVDLFDKFTFLLLCSDEFIMYLDSQPKF | soluble |
| GAMAEYEIDEITFHKRLGILLTSWKNEEDGKTLFQDCDSILVTVGAHDDTNPYQKSTALHTWLLGYEFPSTLILLEKHRITILTSVNKANMLTKLAETKGAAADVNILKRTKDAEENKKLFEKIIEYIRATNKKVGVFPKDKTQGKFINEWDSIFEPVKSEFNLVDASLGLAKCLAIKDEQELANIKGASRVSVAVMSKYFVDELSTYIDQGKKITHSKFSDQMESLIDNEAFFQTKSLKLGDIDLDQLEWCYTPIIQSGGSYDLKPSAITDDRNLHGDVVLCSLGFRYKSYCSNVGRTYLFDPDSEQQKNYSFLVALQKKLFEYCRDGAVIGDIYTKILGLIRAKRPDLEPNFVRNLGAGIGIEFRESSLLVNAKNPRVLQAGMTLNLSIGFGNLINPHPKNSQSKEYALLLIDTIQITRSDPIVFTDSPKAQGDISYFFGED | soluble |
| MSLCQLLGMNCNTPTDIMFSFEGFRRRGGITDHHADGFGIGFFEGKGVRLFHDDKPSVNSPVADLVRAYQIKSENVIAHIRKASQGQTSLANTHPFMREMWGGYWLFAHNGHLIDFFPEQGEFFHPVGTTDSERAFCHILNRLRTRFAARPDDDTLFDAIAGLTHEIRKFGLFNFMLSDGIALFAHASTLLHYIVRQAPFGKARLLDDDVMVDFAEVTTPSDRVAVIATLPLTRDESWSQLAVDELVMFREGNIVRHDRPENPVYMSAEEGLEIARAEGGSHHHHHH | soluble |
| MSLTEILIVEDDDIIATLIERFLLQREYVVCAKVATGEDALYKAAEHLPDLVLMDINLAGKIDGITATKFITAIFHIPVIFLSGQDDETTLERATMAEPASFIIKPFNAKDLYSNIEIALHNDRILKRSKDYKGGKIRRIARAALSELDAYFILDKRGRIVFINPYGEHLLNVHRNDIILKPIGKYLTFYDTRQNTVFTDTFQDVIRESLVLGVRQHIAVKMSDNSFRHVVIQSTSIRDSENETIGMIVRMHMKTKSEEGHHHHHH | soluble |
| MSLRSEQEMMDIFLDFALNDERIRLVTLEGSRTNRNIPPDNFQDYDISYFVTDVESFKENDQWLEIFGKRIMMQKPEDMELFPPELGNWFSYIILFEDGNKLDLTLIPIREAEDYFANNDGLVKVLLDKDSFINYKVTPNDRQYWIKRPTAREFDDCCNEFWMVSTYVVKGLARNEILFAIDHLNEIVRPNLLRMMAWHIASQKGYSFSMGKNYKFMKRYLSNKEWEELMSTYSVNGYQEMWKSLFTCYALFRKYSKAVSEGLAYKYPDYDEGITKYTEGIYCSVKEGHHHHHH | soluble |
| SRTVALGIVAMACLVAIAHGGNFFQDAEVSWGQGRGKIVDGGRGLDLTLDRSSGSGFQSKSEYLFGKIDMQIKLVPGGWWNQELSDMSYRRMRWVQRKFMIYNYCTDAKRFPQGTPAECKLR | soluble |
| MGSDKIHHHHHHVLIGLSALSFSYRCGLIGRGTPRAVSHPLDIEGVMALASRAGLQSVEFPLSLLPDLSPGRLSALRERLTLCGLTPVADSDIVDVDTLRAHIPAAAMIGAHVLRVLISPVLEGYRRPFTTDWPAHLADVTDRLRAVIDLAAEHNIILAVENHQDATSADLAAICAAVDSPHIGVCFDAVNCLVVGETPYAALERLGPLIRNVHLADYETYPTTQGWRLVRCALGEGDLDIRRLFHLIEHYAPDVACQIELVSHSARHVRILDDDWWQGYPPCDVREVLPVLRLFAQTMRLRDDDWRTPWERGAGEEQISLYEDQQYATSIAYLRTIGILPRL | not soluble |
| MRTRSGSAEFSGPLRSVAILAQEKLGDCVLLTPLVRNLRQAFPDLEIHLITFSRASANFFMNDPQVTAVHLVKKQPRRYFREVLSRKFDLLFNTKDHPSTWFLLQSALIRARFKVGHNNPFHEGLYDRLLDTEFHAHMAVKNCALLPLLGVTADTEACRPSLEHHHHHH | soluble |
| MILKALPNESMPREKLLQRGPQALTDAELLAIFLRTGTQGMNVIELADFLIQDFGSLRQLFSASEQEFCQHKGLGQAKYVQLQAVLEMTQRYLAETLKRGDALTSPEQTKLYLSSILRDRQREAFYILFLDNQHRVIKDEILFEGTLDAASVYPREVVKRALHHNAAALILAHNHPSGVAEPSQADRRITRRLIDALALVDIRILDHFVIGDGESVSFAERGWI | not soluble |
| MGHHHHHHSHMQTDIHDEPVNLGFGVQFEPDDLYRLRSQFLPLGKIGGKPSWLNPKNLPKSADLLCNVCEKPLCFLMQVSANGGINDPPHAFHRSLFLFVCRNPSCSRTNDAANLKAFRCQLPRANDYYSFDGPMDPDLDGDVADPRAPADGPGLCRICGCSAAKKCAKCQVARYCSQAHQVIDWPAHKLECAKAATDGSITDEPKNPRNAFCFKEFGVEIDQEYMPANLFDGLSDDEGDEEEEEGNDEDETEEEKKARIREFEKFVKENKGKNADMTKEDLDEATAEQPKDIDFDKFNRLVNLQPDQIIRYKRYGQPLRATGLSELPEVVEPCELCGAPRRFEMQLMPHLLSLIDVDAIGQSIDWASVYVYTCSASCQIADDGYAKEFVAKQDFL | soluble |
| MGHHHHHHSHMVGWQEGANHKNGAGRSQKQEMAEKMVPEVASGEEIGGRSEAGRESPDLFRPNTVEARDRPAGPPFSKSASVRVLQRSRTNRDYIPIEHIQSPIGIYNML | not soluble |
| MTDQVFGKVSKVVCVGAGYVGGPTCAMIAHKCPHITVTVVDMNTAKIAEWNSDKLPIYEPGLDEIVFAARGRNLFFSSDIPKAIAEADLIFISVNTPTKMYGRGKGMAPDLKYVESVSRTIAQYAGGPKIVVEKSTVPVKAAESIGCILREAQKNNENLKFQVLSNPEFLAEGTAMKDLANPDRVLIGGESSPEGLQAVAELVRIYENWVPRNRIITTNTWSSELSKLVANAFLAQRISSINSISAVCEATGAEISEVAHAVGYDTRIGSKFLQASVGFGGSCFQKDVLSLVYLCESLNLPQVADYWQGVININNWQRRRFADKIIAELFNTVTDKKIAIFGFAFKKNTGDTRESSAIHVIKHLMEEHAKLSVYDPKVQKSQMLNDLASVTSAQDVERLITVESDPYAAARGAHAIVVLTEWDEFVELNYSQIHNDMQHPAAIFDGRLILDQKALREIGFRTFAIGTSPDQAYNLFGTAGY | soluble |
| DEAWLTEMLKRVNVLPEALVLTQAANESAWGTSRFATQANNLFGQWCYKQGCGIVPAQRAAGKTHEVQKFDSVQQSIHGYFMNVNRNPAYADLRDIRAMLADKHKNLFSVATASELTHGLLSYSERGIAYVNDLRSMIRHNNAYWTQ | not soluble |
| MGSDKIHHHHHHMAFYPVHKELQNISQSMPQGNFGLWYNKFIPLSDDAFKPSDDKGSNGKGDENRPVDYYFGQYSKLRLNAAETAAILKQKHEDMDDFCANFPPQKYEEIAICATLDSPLITGIGESHPHEVSMVFDHNMGIPYIPASGVKGIVRFAHTISLIPEAMNKAEVIDNVRFDDEADWTSVPHMFGTQKNRGNVIFLDAYPEDIPALHMDIMNPHYSPYYSEGKPPADHHNPTPIKFLTVAKGTKFIFRAVAKKEQNLPQKIRVAFAEALTKEGVGAKIALGYGRFVIDEDGQKVLLKKRKQRHEEKKRRLSPWLDYIELINQVGDWGQFKQIVLDNEKLVEYRKEMDVTEAVRIKALEIRNKWRKSWGASRDEQIATWLQPAGVEWPCIVAGIENPVKEKSADYEKIMQLIDWGAYKSAGIDLSKLPLDALQLLKQKMEEWGCYSKKAKEDKKTAFKKVKDLLRQHQK | not soluble |
| GPGSMDESNRVPTGEAPSDEPPLKVRRHEGGHGELRETSSGDTNPQGATLFIRCTSIHGRGELLNGFISEHREALGVAKWYNVAGDESDGRCVPTLRTDAPFECVYVRSSRKPYFLLEFNEKGDVAKKFVEKLVGLRNTLYKGSPVFVEVAKGGLTVATERLKLEKRDAARRSATAVPLSFSSDKPTGPTAFVPRAVRKR | soluble |
| MAMKVKEVANLVGISVRTLHHYDEIGLLTPDETTESGYRLYSNENLEMLQQILFFKELGFPLKKIKEIIMSPSFDRKEALQLHKKMLLEKRARLDKVIATIDKTIQHTKGEIEMTNKEKFKGFDFSHNPYEEEARERWGDAAVDKANEYAKGMSKEKQEEFNAIYRNLAALRHGAPDSKEAQEAIKVWYDYLQNFSHYSLDAFKGLGQMYVADERFTKNIDKFGEGLAQFMCDAMEVYADRNK | not soluble |
| MNLQHHFLIAMPALQDPIFRRSVVYICEHNQNGAMGIIVNKPLENLQIEGILEKLKITPESRDSAIRLDKAVMLGGPLAEDRGFILHTPPSRFASSIRISDNTVITTSRDVLETLGTQQQPSDVLVALGYASWDKGQLEQELLDNAWLTAPADLNILFKTPIAERWREAAKLIGIDILTMPGVAGHALEHHHHHH | soluble |
| MSLTKLYYEDQYIKEFKGEIIEVKEIDGKFHVLLDQTAFFPGGGGQMGDLGLIDGIKVLDVYEEEGKVYHVLEKEPKKLKNLQCELDWERRFDGMQQHLGQHLLSGCFYDLFGANTCGFHLGKEISTVDIVGFLDEKTIREAEKEANRLIFENLEVKSYAPSKKELKKVKTRRALPKTDEEIRIVEIVGLDLNACCGVHPRNTRDLQVIKIRRWEKHKNATRIEYVAGNRAVSEGHHHHHH | soluble |
| MAHHHHHHVDDDDKMYQSAIKVEPASPPYYSEKTQLYNKPHEEPSNSLMAIECRVCGDKASGFHYGVHACEGCKGFFRRTIRLKLIYDRCDLNCRIHKKSRNKCQYCRFQKCLAVGMSHNAIRFGRMPQAEKEKLLAEISSDIDQLNPESADLRALAKHLYDSYIKSFPLTKAKARAILTGKTTDKSPFVIYDMNSLMMGEDKIKFKHITPLQEQSKEVAIRIFQGCQFRSVEAVQEITEYAKSIPGFVNLDLNDQVTLLKYGVHEIIYTMLASLMNKDGVLISEGQGFMTREFLKSLRKPFGDFMEPKFEFAVKFNALELDDSDLAIFIAVIILSGDRPGLLNVKPIEDIQDNLLQALELQLKLNHPESSQLFAKLLQKMTDLRQIVTEHVQLLQVIKKTETDMSLHPLLQEIYKDLY | soluble |
| MSLDSSISDEDTVTVRTAKQVALVVEGQIQNVTTTAVSVEDLLQEVGGITGADAVDADLSETIPESGLEHHHHHH | not soluble |
